doi:10.1101/498865 (2018)

B1: CyPet-Myo1^IQ12-YPet FRET reporter protein (domain or fragment)
chain: DTMATRIQRAWRSYVRRRSEAAACIQKLWNRNKVNMELERVRNEGTK
B2: CyPet-Myo1^IQ12-S742D-YPet FRET reporter protein (domain or fragment)
chain: CyPet-DTMATRIQRAWRSYVRRRDEAAACIQKLWNRNKVNMELERVRNEGTK-YPet
modifications: not fully specified
B3: CyPet-Myo1^IQ1-YPet FRET reporter protein (domain or fragment)
chain: DTMATRIQRAWRSYVRRRSEA

Columns and labels:
[1] = biological target: T1, Cam1 (fission yeast calmodulin), amino-terminally acetylated (S. pombe, UniProt P05933 1-150, amino-terminal (Nt) acetylation); assay: FRET; first site (Kd1; <0.1 uM)
T1 sequence (P05933 whole entry): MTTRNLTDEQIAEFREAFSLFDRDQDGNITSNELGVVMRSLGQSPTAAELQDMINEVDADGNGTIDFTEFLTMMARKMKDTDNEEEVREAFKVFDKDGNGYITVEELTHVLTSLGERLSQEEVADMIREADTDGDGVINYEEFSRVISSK

[2] = biological target: T1, Cam1 (fission yeast calmodulin), …; assay: FRET; second site (Kd2)
[3] = biological target: T1, Cam1 (fission yeast calmodulin), …; assay: FRET

| Binder | Kd [1] | Kd [2] | Kd [3] |
| --- | --- | --- | --- |
| B1 | 40 nM | – | – |
| B2 | 90 nM | 540 nM | – |
| B3 | – | – | 60 nM |
